B1: HerPBK10: receptor binding region of heregulin-α (aa 35-239) fused to adenovirus penton base with decalysine tail (protein)
chain: LPPRLKEMKSQESAAGSKLVLRCETSSEYSSLRFKWFKNGNELNRKNKPQNIKIQKKPGKSELRINKASLADSGEYMCKVISKLGNDSASANITIVESNEIITGMPASTEGAYVSSESPIRISVSTEGANTSSSTSTSTTGTSHLVKCAEKEKTFCVNGGECFMVKDLSNPSRYLCKCQPGFTGARCTENVPMKVQNQEKAEELYMRRAAMYEEGPPPSYESVVSAAPVAAALGSPFDAPLDPPFVPPRYLRPTGGRNSIRYSELAPLFDTTRVYLVDNKSTDVASLNYQNDHSNFLTTVIQNNDYSPGEASTQTINLDDRSHWGGDLKTILHTNMPNVNEFMFTNKFKARVMVSRLPTKDNQVELKYEWVEFTLPEGNYSETMTIDLMNNAIVEHYLKVGRQNGVLESDIGVKFDTRNFRLGFDPVTGLVMPGVYTNEAFHPDIILLPGCGVDFTHSRLSNLLGIRKRQPFQEGFRITYDDLEGGNIPALLDVDAYQASLKDDTEQGGGGAGGSNSSGSGAEENSNAAAAAMQPVEDMNDHAIRGDTFATRAEEKRAEAEAAAEAAAPAAQPEVEKPQKKPVIKPLTEDSKKRSYNLISNDSTFTQYRSWYLAYNYGDPQTGIRSWTLLCTPDVTCGSEQVYWSLPDMMQDPVTFRSTRQISNFPVVGAELLPVHSKSFYNDQAVYSQLIRQFTSLTHVFNRFPENQILARPPAPTITTVSENVPALTDHGTLPLRNSIGGVQRVTITDARRRTCPYVYKALGIVSPRVLSSRTFKKKKKKKKKK

What was measured:
[1] = Tissue distribution in mice with no tumors; type: in vivo, mouse; conditions: tail vein injection
MDA-MB-435 cells = experiment: Cy3-labeled oligonucleotide delivery, confocal immunofluorescence; type: cell-based, human; conditions: Cy3-labeled oligonucleotide 50 pmol, 1 h at 37° C.
Protocol: HerPBK10 transports a labeled oligonucleotide in MDA-MB-435 cells. To determine whether HerPBK10 can mediate single-stranded oligonucleotide delivery, a Cy3-labeled oligonucleotide (50 pmol) was incubated with HerPBK10 (5 μg) or Lipofectamine 2000 (Invitrogen, Carlsbad, CA, USA), a commercial transfection reagent as a comparative control, in 0.1 M HEPES/Optimem I (Invitrogen; Carlsbad, CA, USA) for 20 minutes at RT. The resulting mixture was added to MDA-MB-435 cells, which express HER, and incubated for 1 h at 37° C. Cells were fixed in 4% PFA for 15′ at RT and processed for immunofluorescence against HerPBK10. Cells were counterstained with DAPI to identify nuclei. Images were acquired using a Leica SP2 laser scanning confocal microscope.

[2] = molecular target: T1, HER3 (human ErbB3 extracellular domain) (Homo sapiens, UniProt P21860); experiment: ELISA of HerPBK10 binding to immobilized HER3
T1 construct: an immobilized peptide containing the extracellular domain of human HER3; purchased Prospec
T1 sequence (P21860 20-643 limits assumed): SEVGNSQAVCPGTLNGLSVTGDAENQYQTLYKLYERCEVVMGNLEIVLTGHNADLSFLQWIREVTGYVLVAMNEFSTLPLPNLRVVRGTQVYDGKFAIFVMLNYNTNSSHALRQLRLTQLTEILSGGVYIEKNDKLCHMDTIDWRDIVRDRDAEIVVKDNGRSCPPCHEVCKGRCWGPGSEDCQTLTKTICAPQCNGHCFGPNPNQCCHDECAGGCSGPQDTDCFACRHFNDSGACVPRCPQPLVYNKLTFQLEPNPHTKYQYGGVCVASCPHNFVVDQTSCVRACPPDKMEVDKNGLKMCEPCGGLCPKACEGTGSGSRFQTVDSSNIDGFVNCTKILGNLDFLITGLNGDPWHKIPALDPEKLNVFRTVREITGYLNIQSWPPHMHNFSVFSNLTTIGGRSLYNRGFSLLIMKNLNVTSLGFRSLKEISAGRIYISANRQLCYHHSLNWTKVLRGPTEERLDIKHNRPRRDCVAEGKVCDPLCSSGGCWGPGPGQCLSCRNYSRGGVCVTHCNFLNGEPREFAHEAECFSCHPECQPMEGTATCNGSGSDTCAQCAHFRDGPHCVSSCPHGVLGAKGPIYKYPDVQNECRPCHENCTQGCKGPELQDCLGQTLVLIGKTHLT
Text: (§1) FIGS. 12A-12C is a group of graphs showing HerPBK10 binds to HER3 and is not inhibited by patient serum. […] Un: no HerPBK10. […] Control samples were bound in bovine serum and receptor-binding verified by competitive inhibition with recombinant heregulin ligand (+Her). N=3. *, p<0.05 compared to control (−Her: no competitive inhibitor).

HER3 [3] = molecular target: T2, HER3 (Homo sapiens, UniProt P21860); experiment: ELISA of HerPBK10 binding to HER2+ cells with competitive inhibitors or sera
T2 construct: endogenous in cells
T2 sequence (P21860 20-1342): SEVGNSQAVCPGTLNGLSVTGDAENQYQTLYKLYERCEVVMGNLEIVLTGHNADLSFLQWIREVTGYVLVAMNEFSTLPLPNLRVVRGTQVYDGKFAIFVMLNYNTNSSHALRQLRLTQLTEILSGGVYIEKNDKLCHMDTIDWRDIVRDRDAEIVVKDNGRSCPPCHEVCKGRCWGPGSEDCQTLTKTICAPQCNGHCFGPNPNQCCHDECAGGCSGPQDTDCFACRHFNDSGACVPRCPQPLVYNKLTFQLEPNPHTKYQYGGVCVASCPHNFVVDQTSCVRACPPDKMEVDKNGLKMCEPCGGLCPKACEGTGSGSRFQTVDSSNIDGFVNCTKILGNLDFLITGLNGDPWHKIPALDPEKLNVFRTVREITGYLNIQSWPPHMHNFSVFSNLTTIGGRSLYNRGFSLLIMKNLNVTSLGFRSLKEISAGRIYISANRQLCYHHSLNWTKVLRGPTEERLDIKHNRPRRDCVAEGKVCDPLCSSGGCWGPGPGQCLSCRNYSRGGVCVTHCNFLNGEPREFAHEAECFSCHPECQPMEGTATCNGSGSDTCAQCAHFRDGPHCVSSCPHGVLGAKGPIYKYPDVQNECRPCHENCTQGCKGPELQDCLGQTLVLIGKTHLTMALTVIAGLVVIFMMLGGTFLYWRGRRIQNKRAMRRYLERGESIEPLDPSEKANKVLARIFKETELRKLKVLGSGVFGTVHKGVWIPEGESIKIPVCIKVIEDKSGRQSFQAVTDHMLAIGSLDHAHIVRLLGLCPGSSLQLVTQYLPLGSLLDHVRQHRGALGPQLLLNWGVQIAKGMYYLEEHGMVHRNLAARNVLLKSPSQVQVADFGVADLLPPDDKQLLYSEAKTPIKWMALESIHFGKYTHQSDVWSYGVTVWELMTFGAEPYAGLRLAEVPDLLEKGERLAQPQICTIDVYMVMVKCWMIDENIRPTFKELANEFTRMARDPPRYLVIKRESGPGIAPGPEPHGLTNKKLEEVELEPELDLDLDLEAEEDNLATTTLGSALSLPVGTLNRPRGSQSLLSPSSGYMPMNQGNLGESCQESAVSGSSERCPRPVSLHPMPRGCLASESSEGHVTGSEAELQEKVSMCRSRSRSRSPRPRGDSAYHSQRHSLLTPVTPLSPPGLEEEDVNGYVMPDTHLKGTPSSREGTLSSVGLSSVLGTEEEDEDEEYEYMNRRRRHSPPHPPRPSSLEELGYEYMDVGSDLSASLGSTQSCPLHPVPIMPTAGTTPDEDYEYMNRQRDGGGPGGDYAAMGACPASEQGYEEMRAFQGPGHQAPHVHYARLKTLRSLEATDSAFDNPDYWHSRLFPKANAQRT
Text: as §1

mouse HER3 = molecular target: T3, mouse HER3 (Mus musculus, UniProt Q61526); experiment: Binding of HerPBK10 to 4T1 mouse mammary tumor cells; conditions: soluble HER3 peptide as competitive inhibitor
T3 construct: endogenous in cells; host or cells: 4T1 mouse mammary tumor cells
T3 sequence (Q61526 20-1339): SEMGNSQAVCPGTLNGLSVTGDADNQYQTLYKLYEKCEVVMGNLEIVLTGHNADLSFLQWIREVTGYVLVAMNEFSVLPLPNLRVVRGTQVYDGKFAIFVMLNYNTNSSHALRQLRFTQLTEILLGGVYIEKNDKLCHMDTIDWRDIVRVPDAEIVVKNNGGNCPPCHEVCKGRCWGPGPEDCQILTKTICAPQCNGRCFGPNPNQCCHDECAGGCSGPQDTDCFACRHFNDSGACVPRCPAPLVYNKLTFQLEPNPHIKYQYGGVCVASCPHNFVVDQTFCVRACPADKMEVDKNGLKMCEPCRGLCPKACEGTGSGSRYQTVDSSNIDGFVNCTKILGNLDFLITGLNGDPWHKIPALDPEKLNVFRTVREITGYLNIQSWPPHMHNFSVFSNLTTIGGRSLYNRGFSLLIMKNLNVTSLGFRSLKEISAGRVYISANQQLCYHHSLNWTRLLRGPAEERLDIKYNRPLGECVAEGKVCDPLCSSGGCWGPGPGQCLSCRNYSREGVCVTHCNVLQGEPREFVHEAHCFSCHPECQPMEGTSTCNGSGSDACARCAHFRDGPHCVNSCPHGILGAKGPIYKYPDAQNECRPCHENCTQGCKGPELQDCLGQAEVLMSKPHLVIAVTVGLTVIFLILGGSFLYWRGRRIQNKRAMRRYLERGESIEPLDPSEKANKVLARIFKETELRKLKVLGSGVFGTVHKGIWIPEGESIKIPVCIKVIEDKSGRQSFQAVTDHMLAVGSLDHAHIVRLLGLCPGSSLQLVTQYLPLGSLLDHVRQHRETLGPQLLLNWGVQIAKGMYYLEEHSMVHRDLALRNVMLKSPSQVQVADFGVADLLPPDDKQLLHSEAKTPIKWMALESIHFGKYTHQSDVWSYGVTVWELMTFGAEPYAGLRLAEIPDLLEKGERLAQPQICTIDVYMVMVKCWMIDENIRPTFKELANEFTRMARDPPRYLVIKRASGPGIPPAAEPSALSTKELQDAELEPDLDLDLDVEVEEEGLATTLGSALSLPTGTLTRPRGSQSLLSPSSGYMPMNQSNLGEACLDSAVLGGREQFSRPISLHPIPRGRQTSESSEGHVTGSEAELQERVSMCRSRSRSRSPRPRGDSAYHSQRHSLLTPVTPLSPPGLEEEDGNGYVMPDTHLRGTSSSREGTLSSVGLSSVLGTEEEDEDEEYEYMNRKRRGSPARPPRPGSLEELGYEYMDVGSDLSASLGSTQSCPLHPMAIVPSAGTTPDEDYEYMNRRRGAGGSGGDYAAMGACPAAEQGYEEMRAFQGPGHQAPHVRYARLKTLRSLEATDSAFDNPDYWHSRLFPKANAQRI
Text: FIGS. 13A-13C show the results that HerPBK10 binds to mouse HER3. […] Blue residues indicate amino acid differences. […] N=3. *, p<0.05 compared to HerPBK10 alone

HER3 [4] = molecular target: T2, HER3; conditions: cells in culture; cited from earlier work
HER2+ tumors = conditions: cited from earlier work
[5] = repeat dosing, immune-competent mice; cited from earlier work
[6] = test system: human cardiosphere-derived cells (CDCs); experiment: Human CDC viability; conditions: 2 or 5 days exposure

Row | Molecule | brain delivery in mice without tumors [1] | oligonucleotide transport into cells (MDA-MB-435 cells) | binding to immobilized HER3 [2] | binding to immobilized HER3 with HER3 block ([2]; pre-incubation with soluble HER3 peptide) | binding with HER4 peptide or betacellulin (HER3 [3]; betacellulin 10 μg/mL) | binding to cellular HER3 with pertuzumab (Pz) (HER3 [3]; heterodimerization-inhibiting antibody) | binding to HER2+ cells in patient serum (HER3 [3]; sera from HER2+ patients and age-matched controls) | binding to human HER3+ cells with HER3 peptide (HER3 [3]; soluble HER3 peptide as competitive inhibitor) | binding to mouse HER3+ cells with HER3 peptide (mouse HER3) | receptor binding with polyclonal antibodies against whole adenovirus (HER3 [4]) | dose for tumor growth ablation compared to doxorubicin (HER2+ tumors; HER2+ tumors in mice) [× lower dose] | effect on heart and liver tissue (HER2+ tumors; mouse, in vivo) | immunogenicity (HER2+ tumors; mouse, in vivo) | neutralizing antibody formation [5] | CDC viability [6]
1 | PBK10: recombinant protein derived from the adenovirus capsid penton base with decalysine | no detectable brain delivery |  |  |  |  |  |  |  |  |  |  |  |  |  | 
2 | B1 | show brain localization | colocalized with the oligonucleotide during binding and uptake | bind to an immobilized peptide containing the extracellular domain of human HER3 | inhibited by pre-adsorption of HerPBK10 with free HER3 peptide | not inhibited by a HER4 peptide or betacellulin | does not prevent HerPBK10 binding to cellular HER3 | do not prevent HerPBK10 binding to HER2+ cells in culture | inhibits binding | inhibits binding | do not prevent receptor binding to cells in culture | > 10 | sparing heart and liver tissue | no detectable immunogenicity | do not produce detectable neutralizing antibody formation against the protein | no toxic or growth promoting effect on tumor cells or CDCs

Source: patent US12502351B2, “Receptor targeting constructs and uses thereof” (Cedars-Sinai Medical Center, priority 2014, dated 2025)
